Results on three molecules are retold here after patent US20030017170A1 (BURNHAM INSTITUTE, published 2003).

Positions of bridges follow the written chain, without caps; N, C: chain ends. No end group written: not given here.

For test [1], the target named is E-selectin:IgG chimera (UniProt P16581). The test can be described thus: competition ELISA: inhibition of sLe^x-PAA-biotin binding to coated E-selectin:IgG.
Test [2] has as its target E-selectin:IgG chimera (UniProt P16581 22-301). The test is described as above.

E-selectin:IgG chimera (UniProt P16581), sequence (P16581 22-301, change not shown): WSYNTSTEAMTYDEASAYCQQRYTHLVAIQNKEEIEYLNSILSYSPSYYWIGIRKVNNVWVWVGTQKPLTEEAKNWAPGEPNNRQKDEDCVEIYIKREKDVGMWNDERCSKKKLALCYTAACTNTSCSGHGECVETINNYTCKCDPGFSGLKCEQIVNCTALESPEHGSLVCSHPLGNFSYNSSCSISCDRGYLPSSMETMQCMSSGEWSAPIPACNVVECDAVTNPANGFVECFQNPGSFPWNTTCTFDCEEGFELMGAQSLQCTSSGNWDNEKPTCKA
E-selectin:IgG chimera (UniProt P16581 22-301), sequence (P16581 22-301, change not shown): as above

B1: synthetic linear IELLQAR (SEQ ID NO:7) peptide (peptide)
peptide: IELLQAR
In the test with E-selectin:IgG chimera [1], B1 showed a 50% inhibitory concentration (IC50) of 200 µM.

B2: synthetic cyclic CIELLQARC (SEQ ID NO:13) peptide (peptide)
peptide: CIELLQARC
modifications: disulfide 1-9 (inferred)
notes: Synthetic peptide cyclised by a disulfide bond; also called cyclic heptapeptide
With B2, in the test with E-selectin:IgG chimera [2], the IC50 came out at 100 µM.

B3: IELLQAR (SEQ ID NO:7) multivalent (Fmoc eight branch) peptide (peptide)
peptide: IELLQAR
modifications: also: eight copies on branched MAPS core
In the case of B3, the IC50 with E-selectin:IgG chimera [1] was determined as 10 µM.
